± gives the uncertainty stated by the source.
Experiment: self-splicing fitness, log relative to wild type (ln ratio); higher = more splicing; Tetrahymena group I intron in knt gene, E. coli kanamycin selection, DiMSum; sequences stand for … in CUCUCU…GGAGGGAAAAGUUAUCAGGCAUGCACCUGGUAGCUAGUCUUUAAACCAAUAGAUUGCAUCGGUUUAAAAGGCAAGACCGUCAAAUUGCGGGAAAGGGGUCAACAGCCGUUCAGUACCAAGUCUCAGGGGAAACUUUGAGAUGGCCUUGCAAAGGGUAUGGUAAUAAGCUGACGGACAUGGUCCUAACCACGCAGCCAAGUCCUAAGUCAACAGAUCUUCUGUUGAUAUGGAUGCAGUUCACAGACUAAAUGUCGGUCGGGGAAGAUGUAUUCUUCUCAUAAGAUAUAGUCGGACCUCUCCUUAAUGGGAGCUAGCGGAUGAAGUGAUGCAACACUGGAGCCGCUGGGAACUAAUUUGUAUGCGAAAGUAUAUUGAUUAGUUUUGGAGUACUCGUGGUCG
How it was run: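 Pooled colonies went to amplicon sequencing on an Illumina HiSeq 2500 after six replicate transformations. The plates were LB agar with 100 μg/mL carbenicillin, 50 μM IPTG and 0.2% rhamnose, with or without 25 μg/mL kanamycin, incubated overnight at 37°C or 30°C. The E. coli BL21(DE3) library had all eight P1ex-region intron nucleotides randomised, the intron placed in the knt kanamycin-resistance gene on pET-22b(+). DiMSum fitness is the error-weighted combination of replicate fold changes, kanamycin against none, normalised to wild type.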

Row | Sequence | self-splicing fitness (ln) (30 °C) | self-splicing fitness (ln) (37 °C)
1 | UCGUAGCAAUAUUACGUGCU | -2.98 ± 0.26 | -2.83 ± 0.48
2 | CUCGAGCAAUAUUACGUCCG | -3.41 ± 0.18 | -3.68 ± 0.42
3 | UCGAAGCAAUAUUACGCAUA | -3.01 ± 0.36 | -2.72 ± 0.26
4 | GUCAAGCAAUAUUACGAGGU | -2.65 ± 0.26 | -3.03 ± 0.37
5 | CGGGAGCAAUAUUACGCAUG | -2.83 ± 0.29 | -0.773 ± 0.21
6 | CCGGAGCAAUAUUACGUCAC | -3.61 ± 0.34 | -2.71 ± 0.38
7 | UCUCAGCAAUAUUACGUAUA | -2.86 ± 0.17 | -1.32 ± 0.13
8 | AGUUAGCAAUAUUACGUGAG | -1.53 ± 0.12 | -1.86 ± 0.14
9 | UCCGAGCAAUAUUACGUGUA | -2.55 ± 0.086 | -1.9 ± 0.082
10 | CUUUAGCAAUAUUACGUGUU | -3.49 ± 0.18 | -3.77 ± 0.22
11 | CAUUAGCAAUAUUACGCAGA |  | -1.78 ± 0.31
12 | UACGAGCAAUAUUACGAGAG | -3.93 ± 0.28 | -2.8 ± 0.22
13 | CUCUAGCAAUAUUACGGUGG | -2.88 ± 0.15 | -2.48 ± 0.21
14 | AUCGAGCAAUAUUACGUCGG | -2 ± 0.13 | -1.42 ± 0.16
15 | CAUUAGCAAUAUUACGCGGG | -1.95 ± 0.3 | 0.421 ± 0.2
16 | ACUCAGCAAUAUUACGCGAC | -2.16 ± 0.14 | -1.85 ± 0.15
17 | UCUAAGCAAUAUUACGGGUA | -1.64 ± 0.11 | -0.58 ± 0.1
18 | AGAGAGCAAUAUUACGGGCU | -3.62 ± 0.23 | -1.48 ± 0.42
19 | GACUAGCAAUAUUACGUGGG | -3.35 ± 0.13 | -1.96 ± 0.098

Row | Sequence | self-splicing fitness (ln) (30 °C) | self-splicing fitness (ln) (37 °C)
20 | AUAAAGCAAUAUUACGACAU | 0.424 ± 0.012 | 0.344 ± 0.032
21 | UAGGAGCAAUAUUACGAUUU | -2.44 ± 0.15 | -1.4 ± 0.24
22 | CCUUAGCAAUAUUACGGGGG | -3.17 ± 0.23 | -1.39 ± 0.23
23 | AUAUAGCAAUAUUACGGUAG | -3.13 ± 0.18 | -1.74 ± 0.21
24 | GCAGAGCAAUAUUACGAUAA | -3.38 ± 0.41 | -2.72 ± 0.44
25 | GACGAGCAAUAUUACGGACU | -0.448 ± 0.15 | -0.75 ± 0.18
26 | CACUAGCAAUAUUACGACAC | -2.65 ± 0.22 | -1.69 ± 0.24
27 | CCUUAGCAAUAUUACGAGUC |  | -2.7 ± 0.28
28 | AUUGAGCAAUAUUACGAUUG | -3.62 ± 0.3 | -3.11 ± 0.26
29 | AUCUAGCAAUAUUACGAUCU | -1.03 ± 0.13 | 0.148 ± 0.15
30 | CUUGAGCAAUAUUACGCUUG |  | -1.83 ± 0.41
31 | CGCCAGCAAUAUUACGGUAC | -2.83 ± 0.095 | -1.52 ± 0.091
32 | CACGAGCAAUAUUACGCCUC | -3.79 ± 0.26 | -1.37 ± 0.23
33 | ACUCAGCAAUAUUACGGGCU | -0.98 ± 0.067 | -0.954 ± 0.095
34 | UCGAAGCAAUAUUACGAUCA | -1.46 ± 0.18 | -0.436 ± 0.23
35 | GCCCAGCAAUAUUACGUUAG | -3.81 ± 0.14 | -2.26 ± 0.16
36 | ACAAAGCAAUAUUACGAUGG | -1.44 ± 0.08 | -0.402 ± 0.1
37 | GUACAGCAAUAUUACGUUAU | -4.01 ± 0.25 | -1.87 ± 0.14
38 | AAUUAGCAAUAUUACGAAGU | -2.79 ± 0.21 | -1.05 ± 0.17

From the supplement of paper PMC7877785
